A short description of this data set: soluble on expression in E. coli; label from the status in PepcDB or PDB records.
“MITLNHIAKTYYQGKLAVPILHGISLTIQSGEFVSIMGPSGSGKSTLMNIIGCLDRPTEGEYMLNDVNILTADESKLALIRNEYIGFVFQHFNLLPRLSAVENVELPLVYGGIKKAERRKRALEALGKVGLADRVHHLPNELSGGQKQRVAIARAIANNPTFIMADEPTGALDTKSGEQVMDIFTKLNAEGTTIVMVTHEEEVAAYSSRRIVLRDGKITEDRRCAV”: the “soluble on expression in E. coli” value was “not soluble”.
The same measure for “MITQRQNAILNLIVEMFTRTHEPVCSKALQDSIDSSSATIRNDMAKLEKMGYLEKAHISSGRMPSRAGFQYFVANSLNLDTIDEQDVYQVVKAFDFEAFKLEDILDAAAKLLAEMTGCTAVIQDVEPTKQRLTGFEIVQLSNHDALAVLTLDESKPVTVQFAIPKNFLSSDLEIFHKLVQGRFLGNTVLDIHYRLRTETPQIVQKYFKITDNVLDLFDYIFSHLFKELIFIEGKVASLAYADLKTYQFLDNPQHVALALRSAISDDEVTKISVAESTEEALENVTVMSHKFLIPYRGTALMHVIGPIEMDYRRMVSLVNVISRVLVMKLTDYYRYLNSNHYEVFLSRNVLKNIERGECLD”: “not soluble”; for “MITVVGGTFSKLHKGHKALLNTAIDTGNEVVIGLTSDEYVKKNKVYPAIPYSVRYRTLYNYMIKRTNKFRIRQIDDRNGNAPYEKDYEVIVVSPETYPRSLKINEIRISNGLPPLKIIRVPYVLAQDLFPISSTRIINGEID”: “not soluble”; for “MIVIIDYDTGNTKSISKALDFIGLQNKISSDATEISQADGVILPGVGAYPEAMKELTRRGLNKTLKEIAAGGKPILGVCLGMQLLLESSNEHSFTNGLGLIPGHVEKLPEDPEFAVPHMGWNQLQIKRATPLTKQLDGEYVYYVHSYYANCPEEYIIATSGYSIEVPGMINKGNIYGAQFHPEKSGQIGLEILKGFKEVTYSCKSSQQ”: “not soluble”.
With “MIVLGLEGTAHTISCGIIDESRILAMESSMYRPKTGGIRPLDAAVHHSEVIDTVISRALEKAKISIHDIDLIGFSMGPGLAPSLRVTATAARTISVLTGKPIIGVNHPLGHIEIGRRVTGAIDPVMLYVSGGNTQVIAHVNGRYRVLGETLDIGIGNMIDKFAREAGIPFPGGPEIEKLAMKGTKLLDLPYSVKGMDTAFSGILTAALQYLKTGQAIEDISYSIQETAFAMLVEVLERALYVSGKDEILMAGGVALNRRLRDMVTNMAREAGIRSYLTDREYCMDNGIMIAQAALLMYKSGVRMSVEETAVNPRFRIDEVDAPWITDASRKDYGKAGAESRIEEVSFHGRPAIRKVRISKSYRNSDLDKKIRYERMRNEFTILRKLKEAGVNSPVVYDFDPFSMSITMQKIPGRMMSAELNEGRTDFLNELGIMIAKMHRAGIAHGDLTVNNIIVNDSVFIIDPSMGKVNAEIEDMAVDIYALEDSIKGLGLDSGSVIGQMLKSYRNNFNLADDVLETVSAIRRRHRYV”, the “soluble on expression in E. coli” value is “soluble”.
Take “MIVPYSVEDILKDGCFLERAEIDRLLDRLRTKKNLILQGPPGTGKTWLAKRLAFALMGQKDDSKVRAVQFHPNLSYEDFVRGWRPTGEGKLSLADGVFMEAIKAASKDPSSKFVVVIEEINRGNPAQIFGELLTLLEAGKRTPNEALELCYPDADGKRRPVHIPENLYVVGTMNIADRSLALVDLALRRRFAFVGLEPRLGQVWRDWVVKECAVDPLEHHHHHH”: the “soluble on expression in E. coli” value is reported as “not soluble”.
Turning to “MIVRAINYESLHIDDRFGSIEELKTKISQKYGIPINSQHIIFNGKFYVLGIFDSPLTVSSDTYTNPLGCFGCPDSLFNDLAGNGMTTDEIREYAFPHKDDPAKREGPDLSSVIDTRAIAKRITENRYEDAYKIPNDLSEKEKTIIMESSGEYIDLVLKQIKEILRSNTKY”, the “soluble on expression in E. coli” value was “not soluble”.
Turning to “MIYEGKAITVTALESGIVELKFDLKGESVNKFNRLTLNELRQAVDAIKADASVKGVIVSSGKDVFIVGADITEFVENFKLPDAELIAGNLEANKIFSDFEDLNVPTVAAINGIALGGGLEMCLAADFRVMADSAKIGLPEVKLGIYPGFGGTVRLPRLIGVDNAVEWIASGKENRAEDALKVSAVDAVVTADKLGAAALDLIKRAISGELDYKAKRQPKLEKLKLNAIEQMMAFETAKGFVAGQAGPNYPAPVEAIKTIQKAANFGRDKALEVEAAGFAKLAKTSASNCLIGLFLNDQELKKKAKVYDKIAKDVKQAAVLGAGIMGGGIAYQSASKGTPILMKDINEHGIEQGLAEAAKLLVGRVDKGRMTPAKMAEVLNGIRPTLSYGDFGNVDLVVEAVVENPKVKQAVLAEVENHVREDAILASNTSTISISLLAKALKRPENFVGMHFFNPVHMMPLVEVIRGEKSSDLAVATTVAYAKKMGKNPIVVNDCPGFLVNRVLFPYFGGFAKLVSAGVDFVRIDKVMEKFGWPMGPAYLMDVVGIDTGHHGRDVMAEGFPDRMKDDRRSAIDALYEAKRLGQKNGKGFYAYEADKKGKQKKLVDSSVLEVLKPIVYEQRDVTDEDIINWMMIPLCLETVRCLEDGIVETAAEADMGLVYGIGFPLFRGGALRYIDSIGVAEFVALADQYAELGALYHPTAKLREMAKNGQSFFG”, the “soluble on expression in E. coli” value was “soluble”.
As to “MIYFQTKDDAFFTLASEQEADKPHREHLLDLTLGKGRKRKSSEVLRRGRLAACGLSFVVKNTLGELVGSVRLWHVQFNKGHNEIQHALLLGPLAVAAECSGIGIGSALMRHAIATAKKMGYGAIFLVGDCAFYQRFGFSSSLTKNLAMPGPYEKHRFQALELIPHYLTSCHGILTPSGELEDWNSFQHHKVA”, the “soluble on expression in E. coli” value was “not soluble”.
As for “MIYVTFTPYGAFGVKDNKEVSGLEDIEYKKLFNEEEIPDIMFKLKTQPNKIADELKEEWGDEIKLETLSTEPFNIGEFLRNNLFKVGKELGYFNNYDEFRKKMHYWSTELTKKVIKSYAQQKDKIIIQVAEAISDLDKTLNLLSERLREWYSLYFPELDHLVNKHEVYANLITKLGKRKNFTKSQLKKILPSKLAGKIAEAAKNSMGGELEDYDLDVIVKFAEEINHLYEKRKELYNYLEKLMNEEAPNITKLAGVSLGARLIGLAGGLEKLAKMPASTIQVLGAEKALFAHLRMGVEPPKHGIIYNHPLIQGSPHWQRGKIARALACKLAIAARADYVGDYIADELLEKLNKRVEEIRRKYPKPPKKKKKEKPKAKKKEKKGKKEKSKKKKDKKKDKKGKKERKVIGKTKSRKLEHHHHHH”, the “soluble on expression in E. coli” value is recorded as “soluble”.
Consider “MKAEGLSGGYGDSRLINNVSLTVEKGEFLGILGPNGSGKTTLLHLLTGTLPAKKGRVYLAGKLLADYKPKELAQIMAVLPQKMDQAFTFTVEETVAFGRYPFQTGLFRQQTEKGEAIVQEAMEQTGVADFAQKPIRELSGGEQQRVYLAQALAQQPRILFLDEPTNFLDLAYQKDLLDLIKRLTRESGLAAVSVFHDLNTASLYCDGLMFMKNGTAGPKQKPEYAVTEQSIKAVYDTDVTALVHQSSPKPMIVIQPEKDSVKRQSIPFEALLQAGRDDILLQTEIPLRTLSSTPIGAGFSWSRTLIHKRLPDQPDPIEGLTACLSESGFQLQETCAMASSERLDRFVYRTYEDGELSVFICVQTGFSIWILINGYAADQFFIKALMAAEAERTKVLGDGGGTGDILIAATQTQQSENIEQRLNQLIKKGTAECIKEAAELF”, for which the “soluble on expression in E. coli” value is “not soluble”.
Take “MKAIILGIQNILEVLLEDIGILKMESIFLHTNITNIPHSVLYVSLSYYIINPCTSASSNLDDSFS”: the “soluble on expression in E. coli” value is listed as “soluble”.
In the case of “MKAKTLGELRRTYPLEKLRRTVKDEARENLREKLRRGERLFPGIHGYEDTVIPALVQAILAKQNFILLGTRGQAKSRILRSLTSLLDEEVPALATELRDNPLHPISPEGKRLLEEAGDDAPIVWLSREDRYVEKLATPDTTVADLLGDMDPIKAARRGTGMADLESIHYGLLPRANRGIFAVNELADLAPKVQVALFNILEEGDVQIRGYPLRLPLDVWLVFTANPQDYTARGRIVTPLKDRIGSEIRTHYPRSLEEGARISAQEAYVPEGVLVPEWVRLSVEAVAFVAREDRRVDQTAGVSQRLAISLLEVVAASAERRALLHGGRPVARPLDLYQGLPAITGKLELEYEGELQGAERVAREIVQRAFGLVLPRYRLRTEPIVAHFEEGNLLTLPEGDVEEALKAMAGVPGLLEAARALAEGEAPEVLLSAGEFVLEGLVGRRKLSRGEATYQAAERPRSYGN” it was “soluble”.

The values are drawn from the DeepSol protein solubility set.
